Blank lines part the entries; values can stand above or below the binder they belong to.
Experiments:
His-FLNAC [1] = target: T1, His-FLNAC (human, UniProt P21333 2150-2647); test: pull-down; pre-cleared E. coli extracts (250 µl) with GST-PC2N or GST-PC2C incubated with purified His-FLN C-terminus (2 µg); 150 mM NaCl, 1.0 mM CaCl2, 50 mM Tris pH 7.5, room temperature; glutathione-agarose beads; immunoblot with anti-His; details: one partner purified
T1 construct: Filamin-A, human, C-terminus aa 2150-2647; also called His-tagged FLNAC; not shown: His tag, N-terminal, kept
T1 sequence (looked up): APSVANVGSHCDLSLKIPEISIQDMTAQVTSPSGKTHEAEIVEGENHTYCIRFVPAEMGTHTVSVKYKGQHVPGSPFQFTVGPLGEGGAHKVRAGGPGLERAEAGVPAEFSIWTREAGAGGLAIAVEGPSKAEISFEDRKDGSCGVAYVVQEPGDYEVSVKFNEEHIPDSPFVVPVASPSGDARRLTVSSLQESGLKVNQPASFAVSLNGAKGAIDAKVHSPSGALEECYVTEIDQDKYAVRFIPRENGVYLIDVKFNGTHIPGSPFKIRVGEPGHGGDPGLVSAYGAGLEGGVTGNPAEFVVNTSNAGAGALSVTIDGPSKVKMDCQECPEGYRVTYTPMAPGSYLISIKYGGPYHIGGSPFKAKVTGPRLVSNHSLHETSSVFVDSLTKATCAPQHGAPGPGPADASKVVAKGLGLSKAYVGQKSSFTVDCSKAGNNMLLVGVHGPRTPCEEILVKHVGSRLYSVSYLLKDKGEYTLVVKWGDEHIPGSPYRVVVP

His-FLNBC = target: T2, His-FLNBC (human, UniProt O75369 2105-2602); test: as above; details: one partner purified
T2 construct: Filamin-B, human, C-terminus aa 2105-2602; also called His-tagged FLNBC; not shown: His tag, N-terminal, kept
T2 sequence (looked up): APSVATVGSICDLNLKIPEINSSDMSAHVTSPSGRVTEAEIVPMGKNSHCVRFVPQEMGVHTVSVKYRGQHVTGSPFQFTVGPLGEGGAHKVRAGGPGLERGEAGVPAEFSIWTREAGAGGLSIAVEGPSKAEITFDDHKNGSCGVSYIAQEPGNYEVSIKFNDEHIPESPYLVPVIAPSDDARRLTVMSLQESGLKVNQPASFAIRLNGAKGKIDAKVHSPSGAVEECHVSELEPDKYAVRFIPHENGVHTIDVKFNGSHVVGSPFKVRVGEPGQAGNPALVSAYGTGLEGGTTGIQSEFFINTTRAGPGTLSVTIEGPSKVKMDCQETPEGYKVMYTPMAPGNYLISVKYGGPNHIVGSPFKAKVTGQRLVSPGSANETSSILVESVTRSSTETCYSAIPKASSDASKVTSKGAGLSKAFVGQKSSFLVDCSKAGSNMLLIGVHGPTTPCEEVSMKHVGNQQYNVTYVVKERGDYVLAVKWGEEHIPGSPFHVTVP

His-FLNCC = target: T3, His-FLNCC (human, UniProt Q14315 2144-2725); test: as above; details: one partner purified
T3 construct: Filamin-C, human, C-terminus aa A2144-P2725; also called His-tagged FLNCC; not shown: His tag, N-terminal, kept
T3 sequence (looked up): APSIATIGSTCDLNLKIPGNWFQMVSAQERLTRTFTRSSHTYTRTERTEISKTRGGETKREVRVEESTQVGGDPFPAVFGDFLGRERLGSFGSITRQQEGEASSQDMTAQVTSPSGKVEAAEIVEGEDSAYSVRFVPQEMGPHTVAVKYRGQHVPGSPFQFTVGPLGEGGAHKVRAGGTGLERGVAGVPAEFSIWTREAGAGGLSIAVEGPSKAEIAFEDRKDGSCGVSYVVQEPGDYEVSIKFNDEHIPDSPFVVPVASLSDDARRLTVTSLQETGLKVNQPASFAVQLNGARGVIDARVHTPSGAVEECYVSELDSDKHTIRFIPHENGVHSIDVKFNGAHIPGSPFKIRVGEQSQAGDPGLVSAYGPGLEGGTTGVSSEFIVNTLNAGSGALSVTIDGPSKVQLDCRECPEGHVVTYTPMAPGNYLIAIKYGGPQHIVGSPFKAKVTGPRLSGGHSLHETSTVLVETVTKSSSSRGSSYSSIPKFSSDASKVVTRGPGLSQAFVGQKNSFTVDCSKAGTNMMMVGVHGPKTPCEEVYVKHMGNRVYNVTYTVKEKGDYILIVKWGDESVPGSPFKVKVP

His-FLNAC [2] = target: T1, His-FLNAC; test: pull-down; purified GST fusion protein (2 µg) incubated with purified His-FLN C-terminus (2 µg); 150 mM NaCl, 1.0 mM CaCl2, 50 mM Tris pH 7.5, room temperature; glutathione-agarose beads; immunoblot with anti-His; details: both partners purified

- binding result (His-FLNAC [1]): binds
- binding result (His-FLNBC): binds
- binding result (His-FLNCC): binds
B1: GST-PC2C (domain or fragment, human, UniProt Q13563 682-968, looked up)
chain: DTYSEVKSDLAQQKAEMELSDLIRKGYHKALVKLKLKKNTVDDISESLRQGGGKLNFDELRQDLKGKGHTDAEIEAIFTKYDQDGDQELTEHEHQQMRDDLEKEREDLDLDHSSLPRPMSSRSFPRSLDDSEEDDDEDSGHSSRRRGSISSGVSYEEFQVLVRRVDRMEHSIGSIVSKIDAVIVKLEIMERAKLKRREVLGRLLDGVAEDERLGRDSEIHREQMERLVREELERWESDDAASQISHGLGTPVGLNGQPRPRSSRPSSSQSTEGMEGAGGNGSSNVHV
notes: Polycystin-2, human, C-terminus PC2C, amino acids 682-968; in pGEX5X; also called GST-tagged PC2C; source: E. coli BL21 (DE3), in lysate; also purified (commercial GST purification kit)

- binding result (His-FLNAC [2]): binds
- binding result (His-FLNBC): binds
- binding result (His-FLNCC): binds
B2: GST-PC2N (domain or fragment, human, UniProt Q13563 1-215, looked up)
chain: MVNSSRVQPQQPGDAKRPPAPRAPDPGRLMAGCAAVGASLAAPGGLCEQRGLEIEMQRIRQAAARDPPAGAAASPSPPLSSCSRQAWSRDNPGFEAEEEEEEVEGEEGGMVVEMDVEWRPGSRRSAASSAVSSVGARSRGLGGYHGAGHPSGRRRRREDQGPPCPSPVGGGDPLHRHLPLEGQPPRVAWAERLVRGLRGLWGTRLMEESSTNREK
notes: Polycystin-2, human, N-terminus PC2N, amino acids 1-215; in pGEX5X; also called GST-tagged PC2N; source: E. coli BL21 (DE3), in lysate; also purified (commercial GST purification kit)

Reference: article PMC3393660, “Structural Interaction and Functional Regulation of Polycystin-2 by Filamin” (PLoS ONE, 2012)
